Laboratory results as given in patent publication US12630600B2 (MEDIMMUNE LIMITED, priority 2022, dated 2026).
Starred links: 1 amine or outer side, 2 acyl side, 3 side chain; linkers in the order of their positions; H or OH if unused. Non-standard residues stand in square brackets, D forms with d. Groups on a side chain read outwards from the residue. No end group written: not given here. *: point of attachment. C20 diacid = O=C(O)CCCCCCCCCCCCCCCCCCC(=O)*; C18 diacid = O=C(O)CCCCCCCCCCCCCCCCC(=O)*; γGlu = O=C(O)[C@H](CCC(=O)[*:2])N[*:1]; αMeF = C[C@](N)(Cc1ccccc1)C(=O)O; AEEA = NCCOCCOCC(=O)O; Aib = CC(C)(N)C(=O)O

B1: Peptide 522 (peptide)
peptide: H[Aib]QGTFTSDVSK[αMeF]LDSERAK([AEEA-AEEA-γGlu-C18 diacid])DFVAWLEAGG-OH
modifications: N-terminus assumed
SMILES: CC(C)C[C@H](NC(=O)[C@H](Cc1c[nH]c2ccccc12)NC(=O)[C@H](C)NC(=O)[C@@H](NC(=O)[C@H](Cc1ccccc1)NC(=O)[C@H](CC(=O)O)NC(=O)[C@H](CCCCNC(=O)COCCOCCNC(=O)COCCOCCNC(=O)CC[C@H](NC(=O)CCCCCCCCCCCCCCCCC(=O)O)C(=O)O)NC(=O)[C@H](C)NC(=O)[C@H](CCCNC(=N)N)NC(=O)[C@H](CCC(=O)O)NC(=O)[C@H](CO)NC(=O)[C@H](CC(=O)O)NC(=O)[C@H](CC(C)C)NC(=O)[C@](C)(Cc1ccccc1)NC(=O)[C@H](CCCCN)NC(=O)[C@H](CO)NC(=O)[C@@H](NC(=O)[C@H](CC(=O)O)NC(=O)[C@H](CO)NC(=O)[C@@H](NC(=O)[C@H](Cc1ccccc1)NC(=O)[C@@H](NC(=O)CNC(=O)[C@H](CCC(N)=O)NC(=O)C(C)(C)NC(=O)[C@@H](N)Cc1c[nH]cn1)[C@@H](C)O)[C@@H](C)O)C(C)C)C(C)C)C(=O)N[C@@H](CCC(=O)O)C(=O)N[C@@H](C)C(=O)NCC(=O)NCC(=O)O
B2: Peptide 523 (peptide)
peptide: H[Aib]QGTFTSDVSK[αMeF]LDSERAK([AEEA-AEEA-γGlu-C20 diacid])DFVAWLEAGG-OH
modifications: N-terminus assumed
SMILES: CC(C)C[C@H](NC(=O)[C@H](Cc1c[nH]c2ccccc12)NC(=O)[C@H](C)NC(=O)[C@@H](NC(=O)[C@H](Cc1ccccc1)NC(=O)[C@H](CC(=O)O)NC(=O)[C@H](CCCCNC(=O)COCCOCCNC(=O)COCCOCCNC(=O)CC[C@H](NC(=O)CCCCCCCCCCCCCCCCCCC(=O)O)C(=O)O)NC(=O)[C@H](C)NC(=O)[C@H](CCCNC(=N)N)NC(=O)[C@H](CCC(=O)O)NC(=O)[C@H](CO)NC(=O)[C@H](CC(=O)O)NC(=O)[C@H](CC(C)C)NC(=O)[C@](C)(Cc1ccccc1)NC(=O)[C@H](CCCCN)NC(=O)[C@H](CO)NC(=O)[C@@H](NC(=O)[C@H](CC(=O)O)NC(=O)[C@H](CO)NC(=O)[C@@H](NC(=O)[C@H](Cc1ccccc1)NC(=O)[C@@H](NC(=O)CNC(=O)[C@H](CCC(N)=O)NC(=O)C(C)(C)NC(=O)[C@@H](N)Cc1c[nH]cn1)[C@@H](C)O)[C@@H](C)O)C(C)C)C(C)C)C(=O)N[C@@H](CCC(=O)O)C(=O)N[C@@H](C)C(=O)NCC(=O)NCC(=O)O
B3: Peptide 342 (peptide)
peptide: H[Aib]QGTFTSDYSK[αMeF]LDSRRAK([γGlu-C18 diacid])DFVQWLLE[Aib]T-OH
modifications: N-terminus assumed
SMILES: CC(C)C[C@H](NC(=O)[C@H](Cc1c[nH]c2ccccc12)NC(=O)[C@H](CCC(N)=O)NC(=O)[C@@H](NC(=O)[C@H](Cc1ccccc1)NC(=O)[C@H](CC(=O)O)NC(=O)[C@H](CCCCNC(=O)CC[C@H](NC(=O)CCCCCCCCCCCCCCCCC(=O)O)C(=O)O)NC(=O)[C@H](C)NC(=O)[C@H](CCCNC(=N)N)NC(=O)[C@H](CCCNC(=N)N)NC(=O)[C@H](CO)NC(=O)[C@H](CC(=O)O)NC(=O)[C@H](CC(C)C)NC(=O)[C@](C)(Cc1ccccc1)NC(=O)[C@H](CCCCN)NC(=O)[C@H](CO)NC(=O)[C@H](Cc1ccc(O)cc1)NC(=O)[C@H](CC(=O)O)NC(=O)[C@H](CO)NC(=O)[C@@H](NC(=O)[C@H](Cc1ccccc1)NC(=O)[C@@H](NC(=O)CNC(=O)[C@H](CCC(N)=O)NC(=O)C(C)(C)NC(=O)[C@@H](N)Cc1c[nH]cn1)[C@@H](C)O)[C@@H](C)O)C(C)C)C(=O)N[C@@H](CC(C)C)C(=O)N[C@@H](CCC(=O)O)C(=O)NC(C)(C)C(=O)N[C@H](C(=O)O)[C@@H](C)O
B4: Peptide 524 (peptide)
peptide: H[Aib]QGTFTSDVSE[αMeF]LDSERAK([AEEA-AEEA-γGlu-C18 diacid])DFVRWLEAGG-OH
modifications: N-terminus assumed
SMILES: CC(C)C[C@H](NC(=O)[C@H](Cc1c[nH]c2ccccc12)NC(=O)[C@H](CCCNC(=N)N)NC(=O)[C@@H](NC(=O)[C@H](Cc1ccccc1)NC(=O)[C@H](CC(=O)O)NC(=O)[C@H](CCCCNC(=O)COCCOCCNC(=O)COCCOCCNC(=O)CC[C@H](NC(=O)CCCCCCCCCCCCCCCCC(=O)O)C(=O)O)NC(=O)[C@H](C)NC(=O)[C@H](CCCNC(=N)N)NC(=O)[C@H](CCC(=O)O)NC(=O)[C@H](CO)NC(=O)[C@H](CC(=O)O)NC(=O)[C@H](CC(C)C)NC(=O)[C@](C)(Cc1ccccc1)NC(=O)[C@H](CCC(=O)O)NC(=O)[C@H](CO)NC(=O)[C@@H](NC(=O)[C@H](CC(=O)O)NC(=O)[C@H](CO)NC(=O)[C@@H](NC(=O)[C@H](Cc1ccccc1)NC(=O)[C@@H](NC(=O)CNC(=O)[C@H](CCC(N)=O)NC(=O)C(C)(C)NC(=O)[C@@H](N)Cc1c[nH]cn1)[C@@H](C)O)[C@@H](C)O)C(C)C)C(C)C)C(=O)N[C@@H](CCC(=O)O)C(=O)N[C@@H](C)C(=O)NCC(=O)NCC(=O)O
B5: Peptide 526 (peptide)
peptide: H[Aib]QGTFTSDVSK[αMeF]LDSERAK([AEEA-AEEA-γGlu-C18 diacid])DFVAWLEA[Aib]G-OH
modifications: N-terminus assumed
SMILES: CC(C)C[C@H](NC(=O)[C@H](Cc1c[nH]c2ccccc12)NC(=O)[C@H](C)NC(=O)[C@@H](NC(=O)[C@H](Cc1ccccc1)NC(=O)[C@H](CC(=O)O)NC(=O)[C@H](CCCCNC(=O)COCCOCCNC(=O)COCCOCCNC(=O)CC[C@H](NC(=O)CCCCCCCCCCCCCCCCC(=O)O)C(=O)O)NC(=O)[C@H](C)NC(=O)[C@H](CCCNC(=N)N)NC(=O)[C@H](CCC(=O)O)NC(=O)[C@H](CO)NC(=O)[C@H](CC(=O)O)NC(=O)[C@H](CC(C)C)NC(=O)[C@](C)(Cc1ccccc1)NC(=O)[C@H](CCCCN)NC(=O)[C@H](CO)NC(=O)[C@@H](NC(=O)[C@H](CC(=O)O)NC(=O)[C@H](CO)NC(=O)[C@@H](NC(=O)[C@H](Cc1ccccc1)NC(=O)[C@@H](NC(=O)CNC(=O)[C@H](CCC(N)=O)NC(=O)C(C)(C)NC(=O)[C@@H](N)Cc1c[nH]cn1)[C@@H](C)O)[C@@H](C)O)C(C)C)C(C)C)C(=O)N[C@@H](CCC(=O)O)C(=O)N[C@@H](C)C(=O)NC(C)(C)C(=O)NCC(=O)O
B6: Peptide 340 (peptide)
peptide: H[Aib]QGTFTSDYSK[αMeF]LDSRRAK([γGlu-C18 diacid])DFVQWLL[Aib]E-OH
modifications: N-terminus assumed
SMILES: CC(C)C[C@H](NC(=O)[C@H](Cc1c[nH]c2ccccc12)NC(=O)[C@H](CCC(N)=O)NC(=O)[C@@H](NC(=O)[C@H](Cc1ccccc1)NC(=O)[C@H](CC(=O)O)NC(=O)[C@H](CCCCNC(=O)CC[C@H](NC(=O)CCCCCCCCCCCCCCCCC(=O)O)C(=O)O)NC(=O)[C@H](C)NC(=O)[C@H](CCCNC(=N)N)NC(=O)[C@H](CCCNC(=N)N)NC(=O)[C@H](CO)NC(=O)[C@H](CC(=O)O)NC(=O)[C@H](CC(C)C)NC(=O)[C@](C)(Cc1ccccc1)NC(=O)[C@H](CCCCN)NC(=O)[C@H](CO)NC(=O)[C@H](Cc1ccc(O)cc1)NC(=O)[C@H](CC(=O)O)NC(=O)[C@H](CO)NC(=O)[C@@H](NC(=O)[C@H](Cc1ccccc1)NC(=O)[C@@H](NC(=O)CNC(=O)[C@H](CCC(N)=O)NC(=O)C(C)(C)NC(=O)[C@@H](N)Cc1c[nH]cn1)[C@@H](C)O)[C@@H](C)O)C(C)C)C(=O)N[C@@H](CC(C)C)C(=O)NC(C)(C)C(=O)N[C@@H](CCC(=O)O)C(=O)O
B7: Peptide 525 (peptide)
peptide: H[Aib]QGTFTSDVSK[αMeF]LDSERAK([AEEA-AEEA-γGlu-C18 diacid])DFVQWLEA[Aib]G-OH
modifications: N-terminus assumed
SMILES: CC(C)C[C@H](NC(=O)[C@H](Cc1c[nH]c2ccccc12)NC(=O)[C@H](CCC(N)=O)NC(=O)[C@@H](NC(=O)[C@H](Cc1ccccc1)NC(=O)[C@H](CC(=O)O)NC(=O)[C@H](CCCCNC(=O)COCCOCCNC(=O)COCCOCCNC(=O)CC[C@H](NC(=O)CCCCCCCCCCCCCCCCC(=O)O)C(=O)O)NC(=O)[C@H](C)NC(=O)[C@H](CCCNC(=N)N)NC(=O)[C@H](CCC(=O)O)NC(=O)[C@H](CO)NC(=O)[C@H](CC(=O)O)NC(=O)[C@H](CC(C)C)NC(=O)[C@](C)(Cc1ccccc1)NC(=O)[C@H](CCCCN)NC(=O)[C@H](CO)NC(=O)[C@@H](NC(=O)[C@H](CC(=O)O)NC(=O)[C@H](CO)NC(=O)[C@@H](NC(=O)[C@H](Cc1ccccc1)NC(=O)[C@@H](NC(=O)CNC(=O)[C@H](CCC(N)=O)NC(=O)C(C)(C)NC(=O)[C@@H](N)Cc1c[nH]cn1)[C@@H](C)O)[C@@H](C)O)C(C)C)C(C)C)C(=O)N[C@@H](CCC(=O)O)C(=O)N[C@@H](C)C(=O)NC(C)(C)C(=O)NCC(=O)O

Key:
human GLP-1 receptor = human GLP-1 receptor (human, UniProt P43220); test: cell-based or functional assay
human glucagon receptor = human glucagon receptor (human, UniProt P47871); test: cell-based or functional assay

Row | Binder | hGLP-1R EC50 (pM) (human GLP-1 receptor) | hGluc-R EC50 (pM) (human glucagon receptor)
1 | B1 | 508 | 6360
2 | B2 | 615 | > 24700
3 | B3 | 220 | 4830
4 | B4 | 366 | > 24400
5 | B5 | 194 | 690
6 | B6 | 312 | 94.7
7 | B7 | 177 | 2450
